Source: article PMC6167357 (2018)
Several values for one entry are separate records, joined by “and”; a condition that tells them apart may be missing. Equal values may be shown once.

Target: F-actin (Sus scrofa)
Experiment: co-sedimentation

B1: titin N2A Ig80-IS-Ig81-Ig82-Ig83 (protein)
chain: SIRVVEKTTATFIAKVGGDPIPNVKWTKGKWRQLNQGGRILIHQKGDEAKLEIRDTTKTDSGLYRCVAFNKHGEIESNVNLQVDERKKQEKIEGDLRAMLKKTPALKKGSGEEEEIDIMELLKNVDPKEYEKYARMYGITDFRGLLQAFELLKQSQEEETHRLEIEELEKSERDEKEFEELVAFIQQRLTQTEPVTLIKDIENQTVLKDNDAIFEIDIKINYPEIKLSWYKGTEKLEPSNKYEISIDGDRHTLRVKNCQPKDQGNYRLVCGPHIASAKLTVIEPAWERHLQDVTLKEGQTCTMTCQFSVPNVKSEWFRNGRVLKPQGRVKTEVEHKVHKLTIADVRAEDQGQYTCKHEDLETSAELRIEAEPIQFTKRIQNIVVSEHQSATFECEVSFDDAIVTWYKGPTELTESQKYNFRNDGRCHYMTIHNVTPDDEGVYSVIARLEPRGEARSTAELYLTTKEIKLEMKPPDIPDSRVPIPTMPIRAVPPEEIPPAVAPSIPLLLPLP
In the case of B1, the Kd is reported as ~17 µM and ~7 µM.
